From paper PMC10503415 come the findings set out here.

Assay [1] concerns the target DhmeA^ΔGG (Haloferax mediterranei). Briefly: crystal structure; DhmeA^ΔGG 12-14 mg/mL; sitting drop at 10°C; 0.1 M MES/imidazole pH 6.5, 0.1 M amino acids, 10% PEG 4,000, 20% glycerol; 3.3 Å.
Assay [2] concerns the target full-length wild-type DhmeA from pnEA/3CH-dhmeA, His6 tag removed with 3C protease (Haloferax mediterranei). As to the kind of experiment: cryo-EM structure; full-length DhmeA 0.035 mg/mL on Quantifoil grids; data collected at 0° and 44° stage tilt on a Titan Krios; 7-8 Å.
Assay [3] shares this target. As to the kind of experiment: dynamic light scattering; wild-type DhmeA 1 mg/mL in 1 M NaCl, 10 mM Tris pH 8.0, 0.5 mM TCEP; Delsa Max Core.

For DhmeA^ΔGG (enzyme), the stoichiometry N (commonly a count of units in the complex or per binding partner) in assay [1] came to 20.
On to “full-length wild-type DhmeA from pnEA/3CH-dhmeA, His6 tag removed with 3C protease (enzyme)”, for which the stoichiometry N was 6 in assay [2] and 4 in assay [3].
